# Data: patent US9273290B2, “Method for producing phosphite dehydrogenase protein and use thereof” (priority 2011, dated 2016)
# Several values for one entry are separate records, joined by “and”; a condition that tells them apart may be missing. Equal values may be shown once.
# Legend:
# [1] = substrate: NC(=O)c1ccc[n+]([C@@H]2O[C@H](COP(=O)([O-])OP(=O)(O)OC[C@H]3O[C@@H](n4cnc5c(N)ncnc54)[C@H](O)[C@@H]3O)[C@@H](O)[C@H]2O)c1; test: purified protein, by the assay type; settings: 40° C.
# [2] = substrate: NC(=O)c1ccc[n+]([C@@H]2O[C@H](COP(=O)([O-])OP(=O)(O)OC[C@H]3O[C@@H](n4cnc5c(N)ncnc54)[C@H](O)[C@@H]3O)[C@@H](O)[C@H]2O)c1; test: Reaction kinetic analysis: NADH production rate at varied NAD+ concentration; type: biochemical, Pseudomonas stutzeri WM88; settings: 28° C.
# From the text: By a well-known method, the base sequence of SEQ ID NO: 2 or a phosphite dehydrogenase gene (SEQ ID NO: 4) of P stutzeri WM88 was inserted into a plasmid pET21b (produced by Novagen) (an amino acid sequence of the protein encoded by the base sequence of SEQ ID NO: 4 is shown in SEQ ID NO: 3) to prepare (i) an expression vector of a fusion protein (see “PtxD4506” in FIG. 2) in which the C-terminal of the phosphite dehydrogenase protein of SEQ ID NO: 1 is labeled with a His tag or (ii) an expression vector of a fusion protein (see “PtxDPst” in FIG. 2) in which the C-terminal of the phosphite dehydrogenase protein of P stutzeri WM88 is labeled with a His tag.
# The supernatant was supplied to a HisTrap column (produced by GE Healthcare) and, in accordance with protocols attached to the HisTrap column, a fusion protein in which a His tag was connected to the C-terminal of the phosphite dehydrogenase protein of SEQ ID NO: 1 was purified.
# PtxD4506 and PtxDPst, which were purified with use of the HisTrap column in [3. Expression of Phosphite Dehydrogenase Protein By Using Escherichia Coli], were compared with each other in terms of reaction rate. The following description discusses how measurement of reaction rates was carried out.
# Reaction rates of respective PtxD4506 and PtxDPst were calculated on the basis of (Reaction formula 1) shown in the section [Background Art].
# Specifically, in the reaction system of (Reaction formula 1), a production rate of NADH was measured with use of 7.5 μg of each of the fusion proteins PtxD4506 and PtxDPst while a concentration of a substrate (NAD^+) was gradually changed from 0.5 μM to 200 μM. Note that a reaction temperature of the fusion protein PtxD4506 was 40° C., and a reaction temperature of the fusion protein PtxDPst was 28° C.
# Based on the measured concentration of the substrate (NAD^+) and the measured production rate of NADH, values of Km (μM), Vmax (μmol/min/m), Kcat (min^−1), and Kcat/km were calculated in accordance with a well-known enzyme kinetic method (see, for example, “Fundamental Experiment Method of Proteins and Enzymes (2nd revised edition), Nankodo Co., Ltd.”). Note that the experiment was carried out three times, and values of Km, Vmax, Kcat, and Kcat/km were calculated in each of the experiments. Then, for each of Km, Vmax, Kcat, and Kcat/km, an average of the values calculated in the three experiments was obtained and defined as the value of each of Km, Vmax, Kcat, and Kcat/km. Kcat was calculated by the formula: Kcat=Vmax (μmol/min/mg)×(MW/10^3).
# [3] = other: NAD+ 0.5 μM to 200 μM, individual experiments 1-3
# [4] = other: NAD+, average of three experiments
Protein,"Km [1, 3]","Km [1, 4]","Vmax [1, 4]","kcat [1, 4]","Km [2, 3]","Km [2, 4]","Vmax [2, 4]","kcat [2, 4]"
"Ralstonia sp. strain 4506 phosphite dehydrogenase, SEQ ID NO: 1, C-terminal His tag fusion (PtxD4506) (Ralstonia sp. 4506) (protein) MKPKVVLTHWVHPEIIELLSASADVIPNTTRETLPRSEVIARAKDADALMAFMPDSIDSAFLEECPKLRVIGAALKGYDNFDVNACTRHGVWLTIVPDLLTIPTAELTIGLLLGLTRHMLEGDRQIRSGHFQGWRPTLYGSGLTGKTLGIIGMGAVGRAIAQRLAGFEMNLLYCDPIPLNAEQEKAWHVQRVTLDELLEKCDYVVPMVPMAAETLHLIDATALAKMKTGSYLINACRGSVVDENAVIAALASGKLAGYAADVFEMEEWIRADRPQAIPKALLDNTAQTFFTPHLGSAVKEVRLEIERQAAMNIIQALAGEKPMGAINQPYPGVKAA",22.6 µM and 23.3 µM and 25.1 µM,23.7 µM,5.9 µmol/min/mg,3.957 s⁻¹,,,,
"Pseudomonas stutzeri WM88 phosphite dehydrogenase, wild type, SEQ ID NO: 3, C-terminal His tag fusion (PtxDPst) (Stutzerimonas stutzeri) (protein, His tag (C); made in house; host or cells: E. coli Rosetta2 (DE3), plasmid pET21b) MLPKLVITHRVHDEILQLLAPHCELMTNQTDSTLTREEILRRCRDAQAMMAFMPDRVDADFLQACPELRVVGCALKGFDNFDVDACTARGVWLTFVPDLLTVPTAELAIGLAVGLGRHLRAADAFVRSGEFQGWQPQFYGTGLDNATVGILGMGAIGLAMADRLQGWGATLQYHEAKALDTQTEQRLGLRQVACSELFASSDFILLALPLNADTQHLVNAELLALVRPGALLVNPCRGSVVDEAAVLAALERGQLGGYAADVFEMEDWARADRPRLIDPALLAHPNTLFTPHIGSAVRAVRLEIERCAAQNIIQVLAGARPINAANRLPKAEPAAC",,,,,74.4 µM and 71.2 µM and 74.7 µM,73.4 µM,4.2 µmol/min/mg,2.827 s⁻¹
